Assay results taken from patent US20130189283A1.

Molecular target: Kv1.3 voltage-gated potassium channel on T cells in human whole blood (human) (UniProt P22001)
Experiment: cell-based or functional assay

Sequence of Kv1.3 voltage-gated potassium channel on T cells in human whole blood (human) (P22001 whole entry): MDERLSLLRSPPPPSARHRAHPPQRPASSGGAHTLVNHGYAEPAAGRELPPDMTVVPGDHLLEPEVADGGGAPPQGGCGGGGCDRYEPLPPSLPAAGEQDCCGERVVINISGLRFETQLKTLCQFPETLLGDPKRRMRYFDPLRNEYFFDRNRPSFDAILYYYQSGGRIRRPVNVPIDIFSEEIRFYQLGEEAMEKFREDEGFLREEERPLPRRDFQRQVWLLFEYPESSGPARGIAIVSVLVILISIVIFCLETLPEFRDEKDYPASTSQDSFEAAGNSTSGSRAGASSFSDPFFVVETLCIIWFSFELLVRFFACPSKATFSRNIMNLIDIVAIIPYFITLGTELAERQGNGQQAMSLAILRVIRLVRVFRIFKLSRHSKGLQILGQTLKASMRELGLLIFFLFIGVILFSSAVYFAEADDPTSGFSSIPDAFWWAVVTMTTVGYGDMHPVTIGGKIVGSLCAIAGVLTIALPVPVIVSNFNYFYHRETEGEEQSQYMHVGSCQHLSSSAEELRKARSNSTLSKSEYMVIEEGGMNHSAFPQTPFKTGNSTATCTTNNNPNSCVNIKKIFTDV

Substance | Potency Relative to ShK (WB, IL2) | WB (IFNg) IC50 | WB (IL-2) IC50
20 kDa-PEG-ShK (peptide) | 5.67 fold | 0.84 nM | 0.38 nM
Monovalent Fc/Fc-L10-ShK[2-35] heterodimer (Fc fusion) | 32.1 fold | 5.2 nM | 2.15 nM
ShK(1-35) (peptide) | 1 fold | 0.078 nM | 0.067 nM
